The record followed here is publication PMC3287209 (Nucleic Acids Research, 2012).

The data set “crystal structure” deals with the molecule itself. Put plainly: crystal structure.
The target of the next data set is XLF wild-type (human, UniProt Q9H9Q4 1-299). In words: native gel or EMSA.

B1: XLF^1–224 (domain or fragment)
chain: MEELEQGLLMQPWAWLQLAENSLLAKVFITKQGYALLVSDLQQVWHEQVDTSVVSQRAKELNKRLTAPPAAFLCHLDNLLRPLLKDAAHPSEATFSCDCVADALILRVRSELSGLPFYWNFHCMLASPSLVSQHLIRPLMGMSLALQCQVRELATLLHMKDLEIQDYQESGATLIRDRLKTEPFEENSFLEQFMIEKLPEACSIGDGKPFVMNLQDLYMAVTTQ
For orientation: stoichiometry N means a count of units in the complex or per binding partner. As to B1, in “crystal structure”, the “stoichiometry N” value was 2.

B2: XRCC4^1–157 (domain or fragment)
chain: MERKISRIHLVSEPSITHFLQVSWEKTLESGFVITLTDGHSAWTGTVSESEISQEADDMAMEKGKYVGELRKALLSGAGPADVYTFNFSKESCYFFFEKNLKDVSFRLGSFNLEKVENPAEVIRELICYCLDTIAENQAKNEHLQKENERLLRDWND
Take B2: in the data set with XLF wild-type, the binding result is recorded as “binds”.
